The values below come from patent US20240282401A1, “METHODS FOR ENZYME ENGINEERING” (The University of Manchester, priority 2021, published 2024).

For data set [1] the following is noted: MAO-N variants, (S)-enantiomer of PPY, ref [104]; cited from earlier work.
The nature of data set [2]: Biotransformation of PPY by purified HDNO variants (GC-FID, chiral HPLC). Format: biochemical. The settings on record: for rate / activity increase towards PPY oxidation versus HDNO D2: biotransformation measurements. As to the method: (§1) Chiral normal phase HPLC was performed on an Agilent HPLC system (G1379A degasser, G1312A binary pump, a G1367A well plate autosampler unit, a G1316A temperature-controlled column compartment and a G1315C diode array detector) (Agilent Technologies Inc., Santa Clara, CA) equipped with a CHIRALCEL OD-H (250 mm length, 4.6 mm diameter, 5 μm particle size) analytical column (Daicel Corp., Osaka, Japan). The typical injection volume was 10 μL and chromatograms were monitored at 265 nm. Gas chromatographic (GC) analysis was performed on an Agilent 6850 GC (Agilent Technologies Inc., Santa Clara, CA) with a flame ionization detector and autosampler equipped with a HP-1 column of length 30 m, 0.32 mm inner diameter and 0.25 μm film thickness (Agilent Technologies Inc., Santa Clara, CA).
A typical 500 μL reaction mixture in a 2 mL tube contained 10 mM amine, 0.05 to 1 mg mL^−1 of purified HDNO variant in pH 8 100 mM NaPi buffer. Reactions were incubated at 30° C. with 250 r.p.m shaking for different reaction times, after which they were quenched by the addition of 50 μL of 10 M NaOH and extracted twice with 500 μL tert-butyl methyl ether (HPLC grade, Merck Life Science UK Limited, Gillingham). The organic fractions were combined and dried over anhydrous MgSO4 and analysed by GC-FID (conversions) or HPLC (enantiomeric ratios) on a chiral stationary phase (see Chromatography section for details). Turnover frequencies (TOF, min^−1) were calculated as the moles of product formed/moles of enzyme min^−1 based on conversions obtained by GC-FID analysis (see Chromatography method). The same response factor was considered for both substrate and product.

A short description of data set [3]: Biotransformation of methylbenzylamine by purified HDNO variants. The data set is classed as biochemical. As to the method:
as §1
(§2) A typical 500 μL reaction mixture in a 2 mL tube contained 10 mM amine, 0.05 to 1 mg mL^−1 of purified HDNO variant in pH 8 100 mM NaPi buffer. […] The organic fractions were combined and dried over anhydrous MgSO4 and analysed by GC-FID (conversions) or HPLC (enantiomeric ratios) on a chiral stationary phase (see Chromatography section for details). Turnover frequencies (TOF, min^−1) were calculated as the moles of product formed/moles of enzyme min^−1 based on conversions obtained by GC-FID analysis (see Chromatography method). […]

Data set [4] in a line: Thermal stability: residual activity after incubation at 45° C. or 50° C. (GC). Format: physicochemical. The settings on record: 60 min. As to the method:
A subset of mutants was selected and inserted into the HDNO D3 and D6 variants by site directed mutagenesis either alone or in pairs to also check for interactions that would further stabilise the enzyme. Namely, D3-K208E, D6-K208E, D6-R207E, D6-K282E, D6-K428E and D6-K208E/K282E mutant proteins were expressed and purified (as described below) and incubated at elevated temperatures (45° C. or 50° C. for 1 h for D6 variants) using a constant temperature water bath incubator. Aliquots were taken every 15 min and activities were measured by biotransformation and gas chromatography (as described below). The % residual activity corresponds to the ratio between the activity observed after incubation at each specified time over the activity of the enzyme without any thermal treatment.
as §2

A short description of data set [5]: Kinetic parameters by HRP-ABTS assay. Format: biochemical. The settings on record: oxidation of 2-phenylpyrrolidine, 30° C., pH 8. As to the method:
Kinetic parameters of different HDNO variants were determined using the ABTS-HRP assay. Samples of 20 μL of substrate at different concentrations in DMSO (0.05 mM-10 mM, 10% DMSO final concentration) was diluted in 130 μL of reacting solution which contained 0.2 mg ml^−1 HRP (IV, Sigma) and 0.4 mg ml^−1 ABTS in 100 mM pH 8 NaPi buffer. The assay was started by adding 50 μL purified enzyme (typically 0.1-2 mg ml^−1 concentration). Production of the reduced ABTS was measured using a Tecan infinite M200 microplate reader (Tecan Group Limited, Mannedorf, Switzerland) at 420 nm (E=36 mM^−1 cm^−1) and 30° C. for 10 min. Measurements were made in triplicate and a 1:1 ratio for the oxidation of substrate to the production of hydrogen peroxide was assumed. Rate was plotted against substrate concentration and Vmax and KM values extracted using non-linear regression analysis with a fit to the Michaelis-Menten equation using Prism software (GraphPad Software, San Diego, CA). Protein concentrations for kinetic parameters were determined using the Bradford assay following supplier's instructions using bovine serum albumin (BSA) standards for calibration (Merck Life Science UK Limited, Gillingham).

The term residual activity denotes the share of the control activity or signal that is left under treatment. Read a high residual activity as a small loss of activity. The Km is the concentration of substrate that gives half-maximal velocity. As usually defined, the kcat is the number of substrate molecules converted per active site and unit of time at saturation.

B1: N336S: evolved monoamine oxidase (MAO-N) variant N336S (protein, UniProt P46882 1-495, looked up, variant N336S)
Monoamine oxidase N: MTSRDGYQWTPETGLTQGVPSLGVISPPTNIEDTDKDGPWDVIVIGGGYCGLTATRDLTVAGFKTLLLEARDRIGGRSWSSNIDGYPYEMGGTWVHWHQSHVWREITRYKMHNALSPSFNFSRGVNHFQLRTNPTTSTYMTHEAEDELLRSALHKFTNVDGTNGRTVLPFPHDMFYVPEFRKYDEMSYSERIDQIRDELSLNERSSLEAFILLCSGGTLENSSFGEFLHWWAMSGYTYQGCMDCLISYKFKDGQSAFARRFWEEAAGTGRLGYVFGCPVRSVVNERDAARVTARDGREFAAKRLVCTIPLNVLSTIQFSPALSTERISAMQAGHVSMCTKVHAEVDNKDMRSWTGIAYPFNKLCYAIGDGTTPAGNTHLVCFGTDANHIQPDEDVRETLKAVGQLAPGTFGVKRLVFHNWVKDEFAKGAWFFSRPGMVSECLQGLREKHRGVVFANSDWALGWRSFIDGAIEEGTRAARVVLEELGTKREVKARL
B1: the reported kcat in data set [1] was 2.50 s⁻¹.

B2: N336S/1246M: evolved monoamine oxidase (MAO-N) variant (protein, UniProt P46882 1-495, looked up, variant N336S I246M)
Monoamine oxidase N: MTSRDGYQWTPETGLTQGVPSLGVISPPTNIEDTDKDGPWDVIVIGGGYCGLTATRDLTVAGFKTLLLEARDRIGGRSWSSNIDGYPYEMGGTWVHWHQSHVWREITRYKMHNALSPSFNFSRGVNHFQLRTNPTTSTYMTHEAEDELLRSALHKFTNVDGTNGRTVLPFPHDMFYVPEFRKYDEMSYSERIDQIRDELSLNERSSLEAFILLCSGGTLENSSFGEFLHWWAMSGYTYQGCMDCLMSYKFKDGQSAFARRFWEEAAGTGRLGYVFGCPVRSVVNERDAARVTARDGREFAAKRLVCTIPLNVLSTIQFSPALSTERISAMQAGHVSMCTKVHAEVDNKDMRSWTGIAYPFNKLCYAIGDGTTPAGNTHLVCFGTDANHIQPDEDVRETLKAVGQLAPGTFGVKRLVFHNWVKDEFAKGAWFFSRPGMVSECLQGLREKHRGVVFANSDWALGWRSFIDGAIEEGTRAARVVLEELGTKREVKARL
On to B2, for which the reported kcat in data set [1] was 2.13 s⁻¹.

B3: D3: HDNO D2 plus N414H (E350L/E352D/N414H), SEQ ID NO: 4 (protein)
chain: MVSSKLATPLSIQGEVIYPDDSGFDAIANIWDGRHLQRPSLIARCLSAGDVAKSVRYACDNGLEISVRSGGHNPNGYATNDGGIVLDLRLMNSIHIDTAGSRARIGGGVISGDLVKEAAKFGLAAVTGMHPKVGFCGLALNGGVGFLTPKYGLASDNILGATLVTATGDVIYCSDDERPELFWAVRGAGPNFGVVTEVEVQLYELPRKMLAGFITWAPSVSELAGLLTSLLDALNEMADHIYPSVFVGVDENRAPSVTVCVGHLGGLDIAERDIARLRGLGRTVSDSIAVRSYDEVVALNAEVGSFEDGMSNLWIDREIAMPNARFAEAIAGNLDKFVSEPASGGSVKLLIDGMPFGNPKRTPARHRDAMGVLALAEWSGAAPGSEKYPELARELDAALLRAGVTTSGFGLLNHNSEVTAEMVAEVYKPEVYSRLAAVKREYDPENRFRHNYNIDPEGS
modifications: HDNO D3
As to B3, in data set [2] (listed as 6-HDNO D3), the “rate / activity increase towards PPY oxidation versus HDNO D2” value amounted to 1.7 fold. Moreover, the “rate / activity increase towards PPY oxidation versus HDNO D2” value in data set [2] (listed as HDNO D3) is listed as “almost twofold increase”. Also, the “enantioselectivity of PPY oxidation” value in data set [2] (chiral HPLC) is “completely selective towards the oxidation of the (R)-enantiomer”. For the same molecule, the “activity to methylbenzylamine lower than in HDNO D6” value in data set [3] is on record as “about 20%”. This molecule also registered a residual activity in data set [4] of 62%. In addition, in data set [5], the Km was 490 ± 140 µM and the kcat amounted to 0.71 ± 0.05 s⁻¹.

B4: D2: 6-hydroxy-D-nicotine oxidase from Arthrobacter nicotinovorans with E350L/E352D, SEQ ID NO: 2 (protein)
chain: MVSSKLATPLSIQGEVIYPDDSGFDAIANIWDGRHLQRPSLIARCLSAGDVAKSVRYACDNGLEISVRSGGHNPNGYATNDGGIVLDLRLMNSIHIDTAGSRARIGGGVISGDLVKEAAKFGLAAVTGMHPKVGFCGLALNGGVGFLTPKYGLASDNILGATLVTATGDVIYCSDDERPELFWAVRGAGPNFGVVTEVEVQLYELPRKMLAGFITWAPSVSELAGLLTSLLDALNEMADHIYPSVFVGVDENRAPSVTVCVGHLGGLDIAERDIARLRGLGRTVSDSIAVRSYDEVVALNAEVGSFEDGMSNLWIDREIAMPNARFAEAIAGNLDKFVSEPASGGSVKLLIDGMPFGNPKRTPARHRDAMGVLALAEWSGAAPGSEKYPELARELDAALLRAGVTTSGFGLLNNNSEVTAEMVAEVYKPEVYSRLAAVKREYDPENRFRHNYNIDPEGS
modifications: HDNO D2
As for B4, in data set [5], the Km was found to be 1060 ± 440 µM and the kcat was determined as 0.50 ± 0.06 s⁻¹.
